US9644017B2, “Insulin derivatives having an extremely delayed time-action profile” (Sanofi-Aventis Deutschland GmbH, priority 2008, dated 2017)

What was measured:
[1] = system: healthy male normoglycemic Wistar rats; test: Blood glucose-lowering effect of novel insulin analogues in rats; type: in vivo, rat; conditions: 9 nmol/kg s.c., n=8, up to eight hours, FIG. 1
Procedure: The blood glucose-lowering effect of selected novel insulin analogues is tested in healthy male normoglycemic Wistar rats. Male rats receive subcutaneous injection of a dose of 9 nmol/kg of an insulin analogue. Blood samples are taken from the animals immediately before the injection of the insulin analogue and at regular intervals up to eight hours after the injection, and the blood glucose content therein is determined.

[2] = cited from earlier work

Substance	hypoglycemic effect / time-action profile in rats [1]	calculated pI ([2]; calculated)	experimentally determined pI ([2]; experimentally determined)
Gly (A21), Arg (B31), Arg (B32) human insulin [insulin glargine]	delayed action of insulin glargine cannot by contrast be unambiguously observed in rats	–	–
Arg (A0), Gly (A21), Arg (B31), Arg (B32) human insulin [Compound 18 from Kohn et al.]	–	7.58	7.3
